3 molecules from patent US20070207522A1 (UNIVERSITY OF VIRGINIA PATENT FOUNDATION, published 2007) can be followed below.

Assay [1] addresses T1, human syndecan-1 (human, UniProt P18827 23-310).
T1 construct: also called mammalian syndecan-1; CD138
T1 sequence (looked up): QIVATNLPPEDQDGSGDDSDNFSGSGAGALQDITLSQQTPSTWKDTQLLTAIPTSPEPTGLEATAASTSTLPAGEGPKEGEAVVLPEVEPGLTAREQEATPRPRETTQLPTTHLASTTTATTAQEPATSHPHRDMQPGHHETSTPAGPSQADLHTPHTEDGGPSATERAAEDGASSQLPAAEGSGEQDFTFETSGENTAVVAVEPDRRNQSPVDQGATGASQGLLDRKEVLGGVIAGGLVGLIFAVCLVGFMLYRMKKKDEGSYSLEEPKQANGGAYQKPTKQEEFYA
Description: pull-down from lysates of transfected cells with intein-tagged deletion mutant. As to the method: (§1) After washing extensively in physiological salt-containing buffer, bound protein was eluted with 1 M NaCl, and identified with avidin-peroxidase using an ECL blot method. […] 293T cells stably transfected with human syndecan-2 or −4 were kindly provided by Dr. Atsushi Utani (Chiba University). […] Immunolocalization of syndecan-1 in human lacrimal glands was performed using anti-human syndecan-1 antibody (CD138).

In assay [2] the target is T1, human syndecan-1. Description: lacritin affinity column, biotinylated cell surface proteins, elution with 1 M NaCl, sequencing. As to the method: as §1
The target of assay [3] is T1, human syndecan-1. Nature of the assay: pull-down from lysates of transfected cells with intein-tagged lacritin, SDS PAGE. As to the method:
as §1

The target in a further assay is T2, human syndecan-4 (human, UniProt P31431 19-198).
T2 sequence (looked up): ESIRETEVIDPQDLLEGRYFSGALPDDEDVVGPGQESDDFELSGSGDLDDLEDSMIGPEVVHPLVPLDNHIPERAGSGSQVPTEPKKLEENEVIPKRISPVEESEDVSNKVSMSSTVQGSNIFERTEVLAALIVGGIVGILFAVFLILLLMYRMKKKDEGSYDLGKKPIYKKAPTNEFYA
Description: pull-down from lysates of transfected 293T cells with intein-tagged lacritin. Here is the method:
as §1

The target in another assay is human syndecan-2 (human, UniProt P34741 19-201). The assay is described as above. As to the method: as §1
Sequence of human syndecan-2 (P34741 19-201 limits assumed): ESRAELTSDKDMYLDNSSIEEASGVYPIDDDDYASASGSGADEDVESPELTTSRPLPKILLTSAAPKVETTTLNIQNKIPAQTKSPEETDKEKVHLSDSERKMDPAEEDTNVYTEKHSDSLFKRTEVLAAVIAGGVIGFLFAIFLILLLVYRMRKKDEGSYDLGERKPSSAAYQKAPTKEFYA

B1: intein-tagged lacritin deletion mutant C-25 (ligand)
chain: EDASSDSTGADPAQEAGTSKPNEEISGPAEPASPPETTTTAQETSAAAVQGTAKVTSSRQELNPLKSIVEKSILLTEQALAKAGKGMHGGVPGG
notes: Pull-downs used 'intein deletion mutants'; also called lacritin lacking 25 C-terminal amino acids; not shown: intein tag of vector pTYB11
Take B1: in the assay with human syndecan-1 [1], the binding result is given as “no binding”.

B2: mature lacritin (recombinant, from pLAC, cleaved from intein) (ligand)
chain: EDASSDSTGADPAQEAGTSKPNEEISGPAEPASPPETTTTAQETSAAAVQGTAKVTSSRQELNPLKSIVEKSILLTEQALAKAGKGMHGGVPGGKQFIENGSEFAQKLLKKFSLLKPWA
notes: also called soluble lacritin
Regarding B2, in the assay with human syndecan-1 [2], the binding result is “binds”.

B3: intein-tagged lacritin (pLAC lacritin-intein fusion) (ligand, not shown: small tags and cut ends)
chain: B2 chain
With B3, the binding result with human syndecan-1 [3] was “binds”; with human syndecan-4 it was “no binding”; in the assay with human syndecan-2 it was “no binding”.
